Measurements from US20070082002A1 (IDEC PHARMACEUTICALS, published 2007).

Key:
[1] = molecular target: T1, RSV fusion (F) protein, affinity purified from HEp-2 cells infected with the Long strain of RSV (respiratory syncytial virus, Long …, UniProt P12568 26-109; P12568 137-574); assay: ELISA, plate coated with purified F-protein, GAH IgG-HRP detection
T1 construct: mature; also called RSV F-protein; soluble F-protein

[2] = molecular target: T1, RSV fusion (F) protein, affinity …; assay: plasmon resonance on an IASYS machine, antibody bound covalently, F-protein in solution
[3] = molecular target: F-protein of RSV 18537 (Type B) (respiratory syncytial virus, strain …, UniProt P13843 26-574); assay: cell-based or functional assay
Sequence of F-protein of RSV 18537 (Type B) (P13843 26-574): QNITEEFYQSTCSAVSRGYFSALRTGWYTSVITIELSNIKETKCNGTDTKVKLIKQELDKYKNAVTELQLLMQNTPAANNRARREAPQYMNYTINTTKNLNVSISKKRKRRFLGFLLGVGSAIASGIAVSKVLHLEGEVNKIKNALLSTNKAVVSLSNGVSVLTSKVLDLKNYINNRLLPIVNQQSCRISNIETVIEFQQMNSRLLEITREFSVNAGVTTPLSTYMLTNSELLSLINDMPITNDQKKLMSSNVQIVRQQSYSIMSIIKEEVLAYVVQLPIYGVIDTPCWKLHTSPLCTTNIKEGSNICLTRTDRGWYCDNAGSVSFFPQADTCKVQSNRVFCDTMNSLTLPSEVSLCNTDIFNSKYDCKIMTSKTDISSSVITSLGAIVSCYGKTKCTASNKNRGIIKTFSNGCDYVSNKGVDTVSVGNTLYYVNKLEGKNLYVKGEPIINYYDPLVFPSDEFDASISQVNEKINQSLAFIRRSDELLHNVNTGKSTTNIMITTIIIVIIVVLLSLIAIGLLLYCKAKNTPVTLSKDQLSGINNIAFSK

[4] = molecular target: F-protein of RSV MR 144 (Type A) (respiratory syncytial virus, MR 144 …); assay: cell-based or functional assay
[5] = molecular target: F-protein of RSV RS 6556 (Type B clinical isolate) in infected VERO cells (respiratory syncytial virus, RS 6556 …); assay: cell-based or functional assay
[6] = molecular target: F-protein of RSV RS Long (Type A prototype) in infected VERO cells (respiratory syncytial virus, Long …, UniProt P12568 26-574); assay: cell-based or functional assay
Sequence of F-protein of RSV RS Long (Type A prototype) in infected VERO cells (P12568 26-574): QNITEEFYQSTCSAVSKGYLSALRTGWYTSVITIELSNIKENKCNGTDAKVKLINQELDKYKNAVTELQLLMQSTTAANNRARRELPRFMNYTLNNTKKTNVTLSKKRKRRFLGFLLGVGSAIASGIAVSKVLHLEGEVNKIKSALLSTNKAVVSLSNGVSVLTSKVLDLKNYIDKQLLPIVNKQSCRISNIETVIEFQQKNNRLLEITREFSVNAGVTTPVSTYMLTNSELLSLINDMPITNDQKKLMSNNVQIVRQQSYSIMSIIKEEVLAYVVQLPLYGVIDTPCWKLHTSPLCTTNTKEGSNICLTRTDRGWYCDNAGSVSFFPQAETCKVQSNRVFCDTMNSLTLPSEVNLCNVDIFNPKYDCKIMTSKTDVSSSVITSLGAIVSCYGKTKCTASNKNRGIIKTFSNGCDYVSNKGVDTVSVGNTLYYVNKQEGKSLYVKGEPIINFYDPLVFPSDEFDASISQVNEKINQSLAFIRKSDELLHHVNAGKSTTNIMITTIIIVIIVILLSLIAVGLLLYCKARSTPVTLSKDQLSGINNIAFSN

[7] = molecular target: T1, RSV fusion (F) protein, affinity …; assay: titration micro calorimetry, RF-2 and F-protein in solution

T1 sequence (P12568 26-109, chain 1 of 2): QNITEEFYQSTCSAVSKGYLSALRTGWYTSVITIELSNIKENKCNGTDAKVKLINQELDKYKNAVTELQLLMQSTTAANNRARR
T1 sequence (P12568 137-574, chain 2 of 2): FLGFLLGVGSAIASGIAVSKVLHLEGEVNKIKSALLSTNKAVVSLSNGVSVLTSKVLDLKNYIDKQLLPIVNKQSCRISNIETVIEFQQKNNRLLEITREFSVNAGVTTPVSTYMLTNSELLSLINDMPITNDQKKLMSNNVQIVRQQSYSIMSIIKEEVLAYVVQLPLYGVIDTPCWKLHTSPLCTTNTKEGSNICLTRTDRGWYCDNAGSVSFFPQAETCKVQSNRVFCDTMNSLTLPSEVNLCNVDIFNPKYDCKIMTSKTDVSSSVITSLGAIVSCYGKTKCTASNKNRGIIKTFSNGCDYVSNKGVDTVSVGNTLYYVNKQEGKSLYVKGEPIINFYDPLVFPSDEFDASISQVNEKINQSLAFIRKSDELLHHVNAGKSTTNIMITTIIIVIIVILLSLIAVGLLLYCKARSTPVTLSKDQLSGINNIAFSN

Row | Binder | EC50 [1] [ng/mL] | Kd [2] [nM] | Infection Neutralization Activity ED50 titer [3] [ng/mL] | Infection Neutralization Activity ED50 titer [4] [ng/mL] | Fusion Inhibition activity ED50 titer [5] [ng/mL] | Fusion Inhibition activity ED50 titer [6] [ng/mL] | Kd [7] [nM]
1 | RF-1 human monoclonal antibody to RSV F-protein (antibody, human IgG1, V domains shown, Tested as natural human IgG1 kappa, protein A purified from supernatant of the EBV-positive tumor cell line from hu-SPL-SCID mouse #6) VH: QVQLQESGPVVVKPTETLTLTCTVSGFSLSNPRMGVTWIRQPPGKALEWLGNIFSSDEKSFSPSLKSRLTTSQDTSRSQVVLSLTNVDPVDTATYYCARVGLYDINAYYLYYLDYWGQGTLVTVSS VL: DIQMTQSPSSLSASVGDRVTITCRAGQRIASYLNWYQHKPGKAPKLLIYAGSNLHRGVPSRFSGGGSGTDFTLTINSLQPEDFATYYCQQAYSTPWTFGPGTKVEIK | 0.6 | ~0.1 | 30 | 30 | 40 | 660 | –
2 | RF-2 human monoclonal antibody to RSV F-protein (antibody, human IgG1, V domains shown, Tested as natural human IgG1 kappa, protein A purified from supernatant of the tumor cell line from hu-SPL-SCID mouse #15; The early preparation held at least two antibody populations) VH: QVQLQESGPALVKPTQTLTLTCTFSGFSLSTRGMSVNWIRQPPGKALEWLARIDWDDDTFYSASLKTRLSISKDTSKNQVVLRMTNVDPVDTATYFCARASLYDSDSFYLFYHAYWGQGTVVTVSS VL: DIQMTQSPSSLSASVGDRVTITCRASQSIASYVNWYQQKPGKAPKVLIFASANLVSGVPSRFSGSGSGTVFTLTISNLQPEDFATYFCQQSYTNFSFGQGTKLEIK | 1 | – | 12 | 8 | 400 | 3300 | 2
